Measurements reported in the RNAGym collection of RNA variant scans (doi:10.1073/pnas.2313332121).
Variants at the floor of the assay were thinned out.

B1: TPR 5TU (parent)
chain: GGAUCUUCUCGAUCUAACAAAAAAGACAAAUCUGCCACAAAGCUUGAGAGCAUCUUCGGAUGCAGAGGCGGCAGCCUUCGGUGGCGCGAUAGCGCCAACGUUCUCAACUAUGACACGCAAAACGCGUGCUCCGUUGAAUGGAGUUUAUCAUG

Variants of: B1
Assay: polymerase ribozyme fitness, log enrichment relative to wild type (log ratio); higher = more active; in vitro selection for triplet polymerase activity
How it was run: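 Mutant libraries for each subunit of a heterodimeric triplet polymerase ribozyme were made by PCR and then transcribed. Each library underwent one round of in vitro selection in triplicate: annealing with a biotinylated primer, the partner subunit and triplets, frozen incubation at −7 °C, gel excision of extended constructs, streptavidin-bead capture and RT-PCR. Input and output libraries were Illumina-sequenced, and only genotypes with ≥10 input reads and ≥1 read per output were kept. Fitness is the logarithm, base 2, of genotype enrichment over wild-type enrichment, computed from inverse-variance-weighted replicate averages.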
For C8U C18G G50C G58U A73G C76A C93A C116A A120C, the “polymerase ribozyme fitness (log ratio)” value was no more than -4.2. In the case of C8U A60G A121C, the “polymerase ribozyme fitness (log ratio)” value is reported as -3.73. For U6G C51A G83C, the “polymerase ribozyme fitness (log ratio)” value was -2.97. For C8U A22U A37C C57G C99A U148A G152A, the “polymerase ribozyme fitness (log ratio)” value was no more than -4.2. With C8A C14G U55A C85U G88U A138U the “polymerase ribozyme fitness (log ratio)” value was no more than -4.2. With U6G A28U A41G G88C G143A U144C U146G the “polymerase ribozyme fitness (log ratio)” value was no more than -4.2. In the case of U6G U139C, the “polymerase ribozyme fitness (log ratio)” value is reported as -3.69. For C8U G50U G71C C85G, the “polymerase ribozyme fitness (log ratio)” value was no more than -4.2. In the case of C8U C32A A49G G92A C96U U127G A138G, the “polymerase ribozyme fitness (log ratio)” value is reported as no more than -4.2. In the case of U6G A73U G81C A98C C99U U144C, the “polymerase ribozyme fitness (log ratio)” value is reported as -3.62. In the case of C8A A24G A41C C93U A97U A120G, the “polymerase ribozyme fitness (log ratio)” value is reported as no more than -4.2. For U6G C10G, the “polymerase ribozyme fitness (log ratio)” value was -3.01. For U7G A37G C38U G59U A60U G94U C108U, the “polymerase ribozyme fitness (log ratio)” value was no more than -4.2. With C8A G50U G74C G80A C85U U139C G141C the “polymerase ribozyme fitness (log ratio)” value was no more than -4.2. In the case of C8G G59C G86C G117U, the “polymerase ribozyme fitness (log ratio)” value is reported as no more than -4.2. With U6G G59U U61A C72U A89G U90A C93G C108U A122U the “polymerase ribozyme fitness (log ratio)” value was no more than -4.2. In the case of U7C U9C A20U C75G C93U A106C C114A, the “polymerase ribozyme fitness (log ratio)” value is reported as no more than -4.2. For C8U A26U U44A C85U A115U C118A G133U, the “polymerase ribozyme fitness (log ratio)” value was no more than -4.2. In the case of U7C A39G C85G C105A A107U, the “polymerase ribozyme fitness (log ratio)” value is reported as no more than -4.2. For U6C A24G U31A A52C C87U U90G G92U C93A, the “polymerase ribozyme fitness (log ratio)” value was no more than -4.2. For U6G C79A G84C G152A, the “polymerase ribozyme fitness (log ratio)” value was no more than -4.2. For U6C C10A U13A C35G C36G A37G G81U G83C, the “polymerase ribozyme fitness (log ratio)” value was no more than -4.2. With C8G C14U A26C U61A C69U G80A U145G the “polymerase ribozyme fitness (log ratio)” value was no more than -4.2. For C8A C116U U135C A150G, the “polymerase ribozyme fitness (log ratio)” value was no more than -4.2. For C8G U13G A40C U77A G94A A97C C99U A113G G117U U139G U144G, the “polymerase ribozyme fitness (log ratio)” value was no more than -4.2. For U6A G62A C76A A91U A121U C123A A138C G141U, the “polymerase ribozyme fitness (log ratio)” value was no more than -4.2. With U6G C8G C18U C54U C131U the “polymerase ribozyme fitness (log ratio)” value was -3.56. With C8G C32U G80U the “polymerase ribozyme fitness (log ratio)” value was -4.14. For U7G A22U C43U C93A A142G, the “polymerase ribozyme fitness (log ratio)” value was no more than -4.2. For U7G A26U U56G G59C G83A C96U A138C, the “polymerase ribozyme fitness (log ratio)” value was no more than -4.2. In the case of C8U C14G U33G C51G C54U C57A U77G C87G G136U, the “polymerase ribozyme fitness (log ratio)” value is reported as no more than -4.2. With C8U C10G C35G C57A A66U G86U U134C U139C U148A the “polymerase ribozyme fitness (log ratio)” value was no more than -4.2. With U7C C8G A30C C85G U134A the “polymerase ribozyme fitness (log ratio)” value was no more than -4.2. In the case of U6A G86U, the “polymerase ribozyme fitness (log ratio)” value is reported as -1.41. In the case of C8A U31A U56G C63A G68U C99A G128U, the “polymerase ribozyme fitness (log ratio)” value is reported as no more than -4.2. For C8A C76A C85U G143C A150U, the “polymerase ribozyme fitness (log ratio)” value was no more than -4.2. With U6C A23G U61A the “polymerase ribozyme fitness (log ratio)” value was no more than -4.2. With C8U A52U U56A U61A C75U C93U C99G C132G the “polymerase ribozyme fitness (log ratio)” value was no more than -4.2. With C8G A16C G25U A37C G59C A64U C87A G92C the “polymerase ribozyme fitness (log ratio)” value was no more than -4.2. In the case of C8U C99A, the “polymerase ribozyme fitness (log ratio)” value is reported as -3.69. With U6C U7G G59U G68C U82C G136U the “polymerase ribozyme fitness (log ratio)” value was no more than -4.2. For U6C C96G C105U, the “polymerase ribozyme fitness (log ratio)” value was -0.764. With C8U C93A the “polymerase ribozyme fitness (log ratio)” value was no more than -4.2. For U7G A26U U56A G59U C75G G84U G94U U130G U146C, the “polymerase ribozyme fitness (log ratio)” value was no more than -4.2. For U7A A28U G67C C87U C96G C123A, the “polymerase ribozyme fitness (log ratio)” value was no more than -4.2. In the case of U6G A60C A73C C87A C118U, the “polymerase ribozyme fitness (log ratio)” value is reported as no more than -4.2. With U6C C32U G84A G88C U111C A150U the “polymerase ribozyme fitness (log ratio)” value was no more than -4.2. With U6C C8U A17U A39G G83A U101A the “polymerase ribozyme fitness (log ratio)” value was no more than -4.2. For U6G U33C U77C G80C C85G G86A G112U A120G U151C, the “polymerase ribozyme fitness (log ratio)” value was no more than -4.2. For C8U C18G C38A C76U U78C A106U A110C C132G U135C U144C U148A C149G, the “polymerase ribozyme fitness (log ratio)” value was no more than -4.2. For C8U A39C G59C C96U C103A C114U C116U, the “polymerase ribozyme fitness (log ratio)” value was no more than -4.2. With U7A C18A U33G A66U G84A G100A G124C the “polymerase ribozyme fitness (log ratio)” value was no more than -4.2. With C8G G67C G92U C99U A107U U148A the “polymerase ribozyme fitness (log ratio)” value was no more than -4.2. In the case of U6G C18G A66C G68C G88C G152C, the “polymerase ribozyme fitness (log ratio)” value is reported as no more than -4.2. With U6A U13A C35G A110G A142G the “polymerase ribozyme fitness (log ratio)” value was -3.55. In the case of U6A G83C A89U G136U A137G, the “polymerase ribozyme fitness (log ratio)” value is reported as -3.78. With U7C C35U U127G the “polymerase ribozyme fitness (log ratio)” value was -3.61. For C8A C10G G50U C51G U56G C57G G62A G86A, the “polymerase ribozyme fitness (log ratio)” value was no more than -4.2. With U6G A47U U61G C69A the “polymerase ribozyme fitness (log ratio)” value was no more than -4.2. With U6G A120C G136C the “polymerase ribozyme fitness (log ratio)” value was -3.69. With U6C U31C A52U G58A C95G U145A the “polymerase ribozyme fitness (log ratio)” value was -2.9. For U7C G50U C87A U90A A106C, the “polymerase ribozyme fitness (log ratio)” value was no more than -4.2. With U7G A64C A122G the “polymerase ribozyme fitness (log ratio)” value was no more than -4.2. In the case of U7A C10G U55A C72U G94A U151A, the “polymerase ribozyme fitness (log ratio)” value is reported as no more than -4.2. For U7A C27A G59U G83A G94A C103G, the “polymerase ribozyme fitness (log ratio)” value was no more than -4.2. For U6C G48C G65A U78A G80A G88C A106G U127C G152U, the “polymerase ribozyme fitness (log ratio)” value was no more than -4.2. In the case of C8G U13A U33G G71A G74A C87G C96A C105A, the “polymerase ribozyme fitness (log ratio)” value is reported as no more than -4.2. With C8U A39G G86U U102C U111G U144C G152A the “polymerase ribozyme fitness (log ratio)” value was no more than -4.2. For C8U C35U G80A G83A U102G U145C U146C, the “polymerase ribozyme fitness (log ratio)” value was no more than -4.2. In the case of C8G A21C, the “polymerase ribozyme fitness (log ratio)” value is reported as -3.31. In the case of U7G U15G U56G C93A A115C U130G, the “polymerase ribozyme fitness (log ratio)” value is reported as no more than -4.2. With C8G G84A the “polymerase ribozyme fitness (log ratio)” value was -3.43. In the case of U7A C36U C95G, the “polymerase ribozyme fitness (log ratio)” value is reported as no more than -4.2. In the case of U6G C35G C95A C99U U102A U111C, the “polymerase ribozyme fitness (log ratio)” value is reported as no more than -4.2. In the case of C8U C95U C116G U135A, the “polymerase ribozyme fitness (log ratio)” value is reported as -3.94. For U7C U15G A41U A52G C96A, the “polymerase ribozyme fitness (log ratio)” value was -3.52. For U6G G83C, the “polymerase ribozyme fitness (log ratio)” value was -0.223. With U7G A12C C51G A64C C123U C132G the “polymerase ribozyme fitness (log ratio)” value was no more than -4.2. In the case of C8U A17G A21U C57U G80A C96G, the “polymerase ribozyme fitness (log ratio)” value is reported as no more than -4.2. For C8A U55A C79U G84A C108G G124A, the “polymerase ribozyme fitness (log ratio)” value was no more than -4.2. For C8G A24G C76A U139A A142C U144C U148G, the “polymerase ribozyme fitness (log ratio)” value was no more than -4.2. For C8A C14U A16U U33G A47U C57A C93A A142U, the “polymerase ribozyme fitness (log ratio)” value was no more than -4.2. For U7A A26U C32G A49C G50A G83U, the “polymerase ribozyme fitness (log ratio)” value was no more than -4.2.
